The values that follow come from article doi:10.1101/2021.04.19.439022, “Bacteriophage λ RexA and RexB Functions Assist the Transition from Lysogeny to Lytic Growth”.

The data set deals with T1, RexA (Bacteriophage lambda, UniProt P68924 1-279).
T1 sequence: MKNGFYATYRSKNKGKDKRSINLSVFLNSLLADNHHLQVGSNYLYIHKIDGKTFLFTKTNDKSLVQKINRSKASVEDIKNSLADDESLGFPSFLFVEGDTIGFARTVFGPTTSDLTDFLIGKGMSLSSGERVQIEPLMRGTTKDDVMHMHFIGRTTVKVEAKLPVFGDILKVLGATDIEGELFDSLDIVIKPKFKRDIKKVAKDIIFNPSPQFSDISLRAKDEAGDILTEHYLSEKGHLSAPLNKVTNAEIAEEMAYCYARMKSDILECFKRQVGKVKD
In words: filter binding; 2 mM Mg2+; Filter binding: 25 mM MES pH 6.5, 2.0 mM MgCl2, 0.1 mM DTT, 0.01 mM EDTA, 40 ug/mL BSA, 30 C, 10 min, 14.5 nM unlabeled + 0.5 nM labeled DNA; SEC: Superdex 200. Particulars: protein: recombinant, tags: C-terminal 6xHis (pET21b), chain copies: 2, 5' overhang 1 nt at both ends.

B1: OR1-OR2 (dsDNA)
DNA 1: AGATCTACCGGTAGAGCTT
DNA 2: TAAGCTCTACCGGTAGATC
modifications: m5C at position 8 of upper strand and position 10 of lower strand
Consider B1, for which the binding result was “binds”.

B2: OR1-OR2 scrambled (dsDNA)
DNA 1: AGATCTACCGGTAGAGCTT
DNA 2: TAAGCTCTACCGGTAGATC
In the case of B2, the binding result (label: 5'-32P) is “binds”.
